Source: IntAct's records for PubMed 17923090

B1: Interferon alpha/beta receptor 2 (Homo sapiens), P48551 (parent)
chain: MLLSQNAFIFRSLNLVLMVYISLVFGISYDSPDYTDESCTFKISLRNFRSILSWELKNHSIVPTHYTLLYTIMSKPEDLKVVKNCANTTRSFCDLTDEWRSTHEAYVTVLEGFSGNTTLFSCSHNFWLAIDMSFEPPEFEIVGFTNHINVMVKFPSIVEEELQFDLSLVIEEQSEGIVKKHKPEIKGNMSGNFTYIIDKLIPNTNYCVSVYLEHSDEQAVIKSPLKCTLLPPGQESESAESAKIGGIITVFLIALVLTSTIVTLKWIGYICLRNSLPKVLNFHNFLAWPFPNLPPLEAMDMVEVIYINRKKKVWDYNYDDESDSDTEAAPRTSGGGYTMHGLTVRPLGQASATSTESQLIDPESEEEPDLPEVDVELPTMPKDSPQQLELLSGPCERRKSPLQDPFPEEDYSSTEGSGGRITFNVDLNSVFLRVLDDEDSDDLEAPLMLSSHLEEMVDPEDPDNVQSNHLLASGEGTQPTFPSPSSEGLWSEDAPSDQSDTSESDVDLGDGYIMR
B2: Interferon alpha/beta receptor 2 (Homo sapiens), P48551 (parent)
chain: B1 chain
partner: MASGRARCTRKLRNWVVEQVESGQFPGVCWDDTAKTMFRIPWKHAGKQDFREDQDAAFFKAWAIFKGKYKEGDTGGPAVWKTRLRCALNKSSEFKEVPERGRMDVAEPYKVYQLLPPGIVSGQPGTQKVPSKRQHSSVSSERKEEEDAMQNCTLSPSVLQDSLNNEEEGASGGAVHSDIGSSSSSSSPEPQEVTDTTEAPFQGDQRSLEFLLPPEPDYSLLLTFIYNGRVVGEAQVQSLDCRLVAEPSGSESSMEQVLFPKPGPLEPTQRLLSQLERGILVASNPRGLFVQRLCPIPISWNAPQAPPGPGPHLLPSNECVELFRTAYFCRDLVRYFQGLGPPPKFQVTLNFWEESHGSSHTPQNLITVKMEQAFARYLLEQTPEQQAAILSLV
B3: Interferon regulatory factor 9 (Homo sapiens), Q00978 (parent)
chain: B2 partner
partner: B1 chain

Variants of: B1
Conditions: with cbp_human CREBBP

Row | Variant | effect of a mutation on the interaction
1 | MLLSQNAFIFRSLNLVLMVYISLVFGISYDSPDYTDESCTFKISLRNFRSILSWELKNHSIVPTHYTLLYTIMSKPEDLKVVKNCANTTRSFCDLTDEWRSTHEAYVTVLEGFSGNTTLFSCSHNFWLAIDMSFEPPEFEIVGFTNHINVMVKFPSIVEEELQFDLSLVIEEQSEGIVKKHKPEIKGNMSGNFTYIIDKLIPNTNYCVSVYLEHSDEQAVIKSPLKCTLLPPGQESESAESAKIGGIITVFLIALVLTSTIVTLKWIGYICLRNSLPKVLNFHNFLAWPFPNLPPLEAMDMVEVIYINRKKKVWDYNYDDESDSDTEAAPRTSGGGYTMHGLTVRPLGQASATSTESQLIDPESEEEPDLPEVDVELPTMPKDAPQQLELLSGPCERRKSPLQDPFPEEDYSSTEGSGGRITFNVDLNSVFLRVLDDEDSDDLEAPLMLSSHLEEMVDPEDPDNVQSNHLLASGEGTQPTFPSPSSEGLWSEDAPSDQSDTSESDVDLGDGYIMR [S384A] | decreasing interaction
2 | MLLSQNAFIFRSLNLVLMVYISLVFGISYDSPDYTDESCTFKISLRNFRSILSWELKNHSIVPTHYTLLYTIMSKPEDLKVVKNCANTTRSFCDLTDEWRSTHEAYVTVLEGFSGNTTLFSCSHNFWLAIDMSFEPPEFEIVGFTNHINVMVKFPSIVEEELQFDLSLVIEEQSEGIVKKHKPEIKGNMSGNFTYIIDKLIPNTNYCVSVYLEHSDEQAVIKSPLKCTLLPPGQESESAESAKIGGIITVFLIALVLTSTIVTLKWIGYICLRNSLPKVLNFHNFLAWPFPNLPPLEAMDMVEVIYINRKKKVWDYNYDDESDSDTEAAPRTSGGGYTMHGLTVRPLGQASATSTESQLIDPEAEEEPDLPEVDVELPTMPKDSPQQLELLSGPCERRKSPLQDPFPEEDYSSTEGSGGRITFNVDLNSVFLRVLDDEDSDDLEAPLMLSSHLEEMVDPEDPDNVQSNHLLASGEGTQPTFPSPSSEGLWSEDAPSDQSDTSESDVDLGDGYIMR [S364A] | decreasing interaction

Variants of: B2
Conditions: with irf9_human IRF9, Q00978

Row | Variant | effect of a mutation on the interaction
3 | MLLSQNAFIFRSLNLVLMVYISLVFGISYDSPDYTDESCTFKISLRNFRSILSWELKNHSIVPTHYTLLYTIMSKPEDLKVVKNCANTTRSFCDLTDEWRSTHEAYVTVLEGFSGNTTLFSCSHNFWLAIDMSFEPPEFEIVGFTNHINVMVKFPSIVEEELQFDLSLVIEEQSEGIVKKHKPEIKGNMSGNFTYIIDKLIPNTNYCVSVYLEHSDEQAVIKSPLKCTLLPPGQESESAESAKIGGIITVFLIALVLTSTIVTLKWIGYICLRNSLPKVLNFHNFLAWPFPNLPPLEAMDMVEVIYINRKKKVWDYNYDDESDSDTEAAPRTSGGGYTMHGLTVRPLGQASATSTESQLIDPESEEEPDLPEVDVELPTMPKDSPQQLELLSGPCERRASPLQDPFPEEDYSSTEGSGGRITFNVDLNSVFLRVLDDEDSDDLEAPLMLSSHLEEMVDPEDPDNVQSNHLLASGEGTQPTFPSPSSEGLWSEDAPSDQSDTSESDVDLGDGYIMR [K399A] | decreasing interaction
4 | MLLSQNAFIFRSLNLVLMVYISLVFGISYDSPDYTDESCTFKISLRNFRSILSWELKNHSIVPTHYTLLYTIMSKPEDLKVVKNCANTTRSFCDLTDEWRSTHEAYVTVLEGFSGNTTLFSCSHNFWLAIDMSFEPPEFEIVGFTNHINVMVKFPSIVEEELQFDLSLVIEEQSEGIVKKHKPEIKGNMSGNFTYIIDKLIPNTNYCVSVYLEHSDEQAVIKSPLKCTLLPPGQESESAESAKIGGIITVFLIALVLTSTIVTLKWIGYICLRNSLPKVLNFHNFLAWPFPNLPPLEAMDMVEVIYINRKKKVWDYNYDDESDSDTEAAPRTSGGGYTMHGLTVRPLGQASATSTESQLIDPESEEEPDLPEVDVELPTMPKDSPQQLELLSGPCERRAAPLQDPFPEEDYSSTEGSGGRITFNVDLNSVFLRVLDDEDSDDLEAPLMLSSHLEEMVDPEDPDNVQSNHLLASGEGTQPTFPSPSSEGLWSEDAPSDQSDTSESDVDLGDGYIMR [K399A;S400A] | decreasing interaction
5 | MLLSQNAFIFRSLNLVLMVYISLVFGISYDSPDYTDESCTFKISLRNFRSILSWELKNHSIVPTHYTLLYTIMSKPEDLKVVKNCANTTRSFCDLTDEWRSTHEAYVTVLEGFSGNTTLFSCSHNFWLAIDMSFEPPEFEIVGFTNHINVMVKFPSIVEEELQFDLSLVIEEQSEGIVKKHKPEIKGNMSGNFTYIIDKLIPNTNYCVSVYLEHSDEQAVIKSPLKCTLLPPGQESESAESAKIGGIITVFLIALVLTSTIVTLKWIGYICLRNSLPKVLNFHNFLAWPFPNLPPLEAMDMVEVIYINRKKKVWDYNYDDESDSDTEAAPRTSGGGYTMHGLTVRPLGQASATSTESQLIDPESEEEPDLPEVDVELPTMPKDSPQQLELLSGPCERRKAPLQDPFPEEDYSSTEGSGGRITFNVDLNSVFLRVLDDEDSDDLEAPLMLSSHLEEMVDPEDPDNVQSNHLLASGEGTQPTFPSPSSEGLWSEDAPSDQSDTSESDVDLGDGYIMR [S400A] | increasing interaction

Variants of: B3
Conditions: with inar2_human IFNAR2, P48551

Row | Variant | effect of a mutation on the interaction
6 | MASGRARCTRKLRNWVVEQVESGQFPGVCWDDTAKTMFRIPWKHAGKQDFREDQDAAFFKAWAIFKGKYKEGDTGGPAVWKTRLRCALNKSSEFKEVPERGRMDVAEPYKVYQLLPPGIVSGQPGTQKVPSKRQHSSVSSERKEEEDAMQNCTLSPSVLQDSLNNEEEGASGGAVHSDIGSSSSSSSPEPQEVTDTTEAPFQGDQRSLEFLLPPEPDYSLLLTFIYNGRVVGEAQVQSLDCRLVAEPSGSESSMEQVLFPKPGPLEPTQRLLSQLERGILVASNPRGLFVQQLCPIPISWNAPQAPPGPGPHLLPSNECVELFRTAYFCRDLVRYFQGLGPPPKFQVTLNFWEESHGSSHTPQNLITVKMEQAFARYLLEQTPEQQAAILSLV [R292Q] | decreasing interaction
